Experiments:
C-reactive protein (CRP) = target: T1, C-reactive protein (CRP) (UniProt P02741 19-224); test: electrochemiluminescence aptasensor; linear response 0.01-1000 ng/mL, LOD 8.5 pg/mL; immobilized aptamer; CRP incubation 4 °C, 1 h on BSA-blocked aptamer electrode; wash 0.01 M PBS pH 7.4; ECL read in 3 mM TPA, 0.01 M PBS pH 7.4, room temperature; settings: protein: commercial; chain copies: 5
T1 sequence: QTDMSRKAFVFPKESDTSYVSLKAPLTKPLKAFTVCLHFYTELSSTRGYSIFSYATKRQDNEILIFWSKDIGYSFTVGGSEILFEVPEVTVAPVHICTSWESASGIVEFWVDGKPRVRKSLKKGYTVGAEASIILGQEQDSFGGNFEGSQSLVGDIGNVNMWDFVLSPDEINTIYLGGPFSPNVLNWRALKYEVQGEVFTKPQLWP

[1] = target: carbohydrate antigen 15-3 (CA15-3) (UniProt P15941 24-1097); test: electrochemiluminescence aptasensor; selectivity test; no significant ECL decrease; CRP incubation 4 °C, 1 h on BSA-blocked aptamer electrode; wash 0.01 M PBS pH 7.4; ECL read in 3 mM TPA, 0.01 M PBS pH 7.4, room temperature; settings: protein: commercial
Chain of carbohydrate antigen 15-3 (CA15-3) (P15941 24-1097): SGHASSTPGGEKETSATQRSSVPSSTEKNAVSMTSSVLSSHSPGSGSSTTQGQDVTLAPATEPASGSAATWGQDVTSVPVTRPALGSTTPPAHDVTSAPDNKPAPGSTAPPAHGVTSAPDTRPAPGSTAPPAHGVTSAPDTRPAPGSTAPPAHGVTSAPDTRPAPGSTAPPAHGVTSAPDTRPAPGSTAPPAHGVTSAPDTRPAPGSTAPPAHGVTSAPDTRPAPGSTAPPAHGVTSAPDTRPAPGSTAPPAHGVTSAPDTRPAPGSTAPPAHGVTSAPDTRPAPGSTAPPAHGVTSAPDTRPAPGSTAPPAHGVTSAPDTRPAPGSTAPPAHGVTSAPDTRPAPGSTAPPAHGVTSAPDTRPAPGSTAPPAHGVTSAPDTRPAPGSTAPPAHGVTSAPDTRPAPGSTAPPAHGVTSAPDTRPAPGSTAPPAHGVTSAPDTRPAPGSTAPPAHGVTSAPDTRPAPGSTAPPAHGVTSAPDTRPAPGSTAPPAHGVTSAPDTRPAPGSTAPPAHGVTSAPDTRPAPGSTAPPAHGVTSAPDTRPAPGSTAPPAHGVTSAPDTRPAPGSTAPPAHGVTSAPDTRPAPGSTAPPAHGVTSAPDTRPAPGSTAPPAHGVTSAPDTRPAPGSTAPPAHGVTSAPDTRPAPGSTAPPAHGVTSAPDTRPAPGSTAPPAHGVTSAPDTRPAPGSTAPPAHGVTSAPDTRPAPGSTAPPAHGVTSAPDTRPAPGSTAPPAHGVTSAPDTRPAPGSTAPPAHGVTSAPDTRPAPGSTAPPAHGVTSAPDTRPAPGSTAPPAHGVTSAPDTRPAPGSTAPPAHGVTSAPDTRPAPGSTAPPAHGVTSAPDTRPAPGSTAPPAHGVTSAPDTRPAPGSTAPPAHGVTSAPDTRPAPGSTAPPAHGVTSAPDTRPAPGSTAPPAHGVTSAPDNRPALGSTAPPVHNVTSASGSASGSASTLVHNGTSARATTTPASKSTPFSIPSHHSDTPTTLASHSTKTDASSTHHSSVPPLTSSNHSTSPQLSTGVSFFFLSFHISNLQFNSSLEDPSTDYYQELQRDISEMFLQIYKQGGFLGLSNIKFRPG

[2] = target: carcinoembryonic antigen (CEA) (UniProt P06731 35-685); test: as above; settings: protein: commercial
Chain of carcinoembryonic antigen (CEA) (P06731 35-685): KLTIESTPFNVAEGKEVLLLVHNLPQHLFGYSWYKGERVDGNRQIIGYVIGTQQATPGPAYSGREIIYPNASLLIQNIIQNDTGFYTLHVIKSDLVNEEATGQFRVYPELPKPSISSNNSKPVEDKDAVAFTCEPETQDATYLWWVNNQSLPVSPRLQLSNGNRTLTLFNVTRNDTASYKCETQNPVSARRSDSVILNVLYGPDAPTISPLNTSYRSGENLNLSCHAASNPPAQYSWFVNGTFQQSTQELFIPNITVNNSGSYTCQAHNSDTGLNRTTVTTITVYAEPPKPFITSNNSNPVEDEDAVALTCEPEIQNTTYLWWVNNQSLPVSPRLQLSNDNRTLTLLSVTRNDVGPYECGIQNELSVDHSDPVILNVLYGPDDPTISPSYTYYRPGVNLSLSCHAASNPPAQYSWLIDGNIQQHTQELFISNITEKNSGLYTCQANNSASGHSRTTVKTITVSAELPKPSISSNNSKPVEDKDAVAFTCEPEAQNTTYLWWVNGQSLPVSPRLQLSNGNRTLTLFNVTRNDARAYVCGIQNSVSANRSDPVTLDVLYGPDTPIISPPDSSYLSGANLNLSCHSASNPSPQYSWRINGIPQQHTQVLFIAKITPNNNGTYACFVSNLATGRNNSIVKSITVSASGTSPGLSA

B1: CRP aptamer (ssDNA)
DNA: CGAAGGGGATTCGAGGGGTGATTGCGTGCTCCATTTGGTG
modifications: 5'-NH2
- binding result (C-reactive protein (CRP)): binds
- binding result [1]: no binding
- binding result [2]: no binding

— PMC10708393, “The Fabrication of a Probe-Integrated Electrochemiluminescence Aptasensor Based on Double-Layered Nanochannel Array with Opposite Charges for the Sensitive Determination of C-Reactive Protein”
